The target of assay [1] is T1, CD47 (human, UniProt Q08722 19-323).
T1 construct: whole, on cells; Species is stated as human for the transfected CHO line; also called human CD47; CHO.exCD47
The assay is described as follows: flow cytometry titration on CHO.exCD47 cells, anti-HIS ALEXA-488 detection, n=3. In general terms: A flow cytometer gives signals particle by particle.

Assay [2] has as its target T2, CD33 (human, UniProt P20138 18-364).
T2 construct: whole, on cells; Species is stated as human for the transfected lines; also called human CD33; CHO.exCD33
The assay is described as follows: flow cytometry titration on MOLM-13 cells (CD33+ CD47+), KD as an avidity value.

Assay [3] concerns the target T2, CD33. The experiment in a line: column 'KD MOLM-13': flow cytometry on MOLM-13 cells (CD33+ CD47+), KD as an avidity value.
In assay [4] the target is T1, CD47. The experiment in a line: cell-based or functional assay.
Assay [5] addresses T2, CD33. The experiment in a line: calibrated flow cytometry titration on MOLM-13 cells, KD as an avidity value. As to the method:
(§1) CD33 equilibrium binding constants (KD, as an avidity measurement) of the licMABs and mAb were determined by calibrated flow cytometry analyses as previously described (Benedict et al., 1997; J. Immunol. Methods; 201(2); 223-231). Briefly, MOLM-13 cells were incubated with licMABs or mAb in concentrations ranging from 0.01 to 15 μg/ml and stained with a FITC antiHuman IgG Fc (clone HP6017, BioLegend) secondary antibody by flow cytometry. The instrument was calibrated with 3.0-3.4 μm Rainbow Calibration particles of 8 peaks (BioLegend), the maximum MFI value was set to 100% and all data points were normalized accordingly. The assay was performed in quadruplicates and the values were analyzed by non-linear regression using a one-site specific binding model.

For assay [6], the target named is T2, CD33. The experiment in a line: column 'KD MOLM-13': calibrated flow cytometry on MOLM-13 cells, KD as an avidity value. Here is the method:
as §1

Assay [7] concerns the target T2, CD33. The assay is described as follows: calibrated flow cytometry titration on MOLM-13 cells, KD as an avidity value; panel 'KD determination of Fc-engineered licMABs'. Here is the method:
as §1

T2 sequence (P20138 18-364): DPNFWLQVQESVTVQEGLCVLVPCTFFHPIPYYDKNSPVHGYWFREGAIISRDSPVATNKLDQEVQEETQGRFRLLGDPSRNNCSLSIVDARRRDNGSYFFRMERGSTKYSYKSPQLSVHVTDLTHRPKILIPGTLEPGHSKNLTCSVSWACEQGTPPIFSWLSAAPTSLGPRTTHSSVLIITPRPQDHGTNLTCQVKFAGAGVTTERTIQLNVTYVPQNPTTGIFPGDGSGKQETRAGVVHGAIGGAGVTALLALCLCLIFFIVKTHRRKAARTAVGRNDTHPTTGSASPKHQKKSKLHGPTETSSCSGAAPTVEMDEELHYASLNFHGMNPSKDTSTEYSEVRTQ

B1: SirpIg-SirpIg-anti-CD16-anti-CD33 liCAD (other)
chain: EEELQVIQPDKSVLVAAGETATLRCTATSLIPVGPIQWFRGAGPGRELIYNQKEGHFPRVTTVSDLTKRNNMDFSIRIGNITPADAGTYYCVKFRKGSPDDVEFKSGAGTELSVRAKPSGGGGSGGGGSGGGGSGGGGSEEELQVIQPDKSVLVAAGETATLRCTATSLIPVGPIQWFRGAGPGRELIYNQKEGHFPRVTTVSDLTKRNNMDFSIRIGNITPADAGTYYCVKFRKGSPDDVEFKSGAGTELSVRAKPSGGGGSGGGGSGGGGSGGGGSQVTLKESGPGILQPSQTLSLTCSFSGFSLRTSGMGVGWIRQPSGKGLEWLAHIWWDDDKRYNPALKSRLTISKDTSSNQVFLKIASVDTADTATYYCAQINPAWFAYWGQGTLVTVSAGGGGSGGGGSGGGGSGGGGSDTVLTQSPASLAVSLGQRATISCKASQSVDFDGDSFMNWYQQKPGQPPKLLIYTTSNLESGIPARFSASGSGTDFTLNIHPVEEEDTATYYCQQSNEDPYTFGGGTKLEIKGGGGSGGGGSGGGGSGGGGSDIQLTQSPSTLSASVGDRVTITCRASESLDNYGIRFLTWFQQKPGKAPKLLMYAASNQGSGVPSRFSGSGSGTEFTLTISSLQPDDFATYYCQQTKEVPWSFGQGTKVEVKGGGGSGGGGSGGGGSGGGGSEVQLVQSGAEVKKPGSSVKVSCKASGYTITDSNIHWVRQAPGQSLEWIGYIYPYNGGTDYNQKFKNRATLTVDNPTNTAYMELSSLRSEDTAFYYCVNGNPWLAYWGQGTLVTVSS
Turning to B1, the Kd turned out to be 21 nM in the assay with CD47 [1], 30 nM with CD33 [2] and 30 nM with CD33 [3]. Besides, in the assay with CD47 [4], the “EC50 (concentration of half maximum lysis), redirected lysis of MOLM 13 cells by expanded PBMC effector cells, E:T 2:1, 4 h” value stood at 0.0015 nM.

B2: αCD33 mAB (antibody, human IgG1)
heavy: not shown
light: DIQLTQSPSTLSASVGDRVTITCRASESLDNYGIRFLTWFQQKPGKAPKLLMYAASNQGSGVPSRFSGSGSGTEFTLTISSLQPDDFATYYCQQTKEVPWSFGQGTKVEVKVAAPSVFIFPPSDEQLKSGTASVVCLLNNFYPREAKVQWKVDNALQSGNSQESVTEQDSKDSTYSLSSTLTLSKADYEKHKVYACEVTHQGLSSPVTKSFNRGEC
notes: Human IgG1/kappa (pFUSE-CHIg-hG1, pFUSE2-CLIg-hk); It was obtained from SIRPα-PreSc-antiCD33 by PreScission cleavage, so residues of the cleavage site may remain at the light chain N-terminus; also called antiCD33 mAb; anti-CD33 mAB (clone hP67.6)
With B2, the Kd with CD33 [5] and in the assay with CD33 [6] was 3 nM throughout.

B3: Fc-engineered variant of αCD33 mAB (antibody, human IgG1)
heavy: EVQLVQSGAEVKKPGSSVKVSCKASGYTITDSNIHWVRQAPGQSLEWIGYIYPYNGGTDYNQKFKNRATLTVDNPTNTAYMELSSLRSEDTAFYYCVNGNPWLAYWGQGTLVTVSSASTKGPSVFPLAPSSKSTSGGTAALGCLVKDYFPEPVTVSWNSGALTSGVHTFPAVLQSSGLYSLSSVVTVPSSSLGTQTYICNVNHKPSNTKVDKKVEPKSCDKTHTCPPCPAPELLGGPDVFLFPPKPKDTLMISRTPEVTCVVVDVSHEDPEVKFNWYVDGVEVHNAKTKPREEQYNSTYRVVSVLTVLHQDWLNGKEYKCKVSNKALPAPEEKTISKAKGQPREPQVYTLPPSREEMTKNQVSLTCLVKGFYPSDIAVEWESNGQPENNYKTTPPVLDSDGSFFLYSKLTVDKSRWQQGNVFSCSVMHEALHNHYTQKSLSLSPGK
light: DIQLTQSPSTLSASVGDRVTITCRASESLDNYGIRFLTWFQQKPGKAPKLLMYAASNQGSGVPSRFSGSGSGTEFTLTISSLQPDDFATYYCQQTKEVPWSFGQGTKVEVKVAAPSVFIFPPSDEQLKSGTASVVCLLNNFYPREAKVQWKVDNALQSGNSQESVTEQDSKDSTYSLSSTLTLSKADYEKHKVYACEVTHQGLSSPVTKSFNRGEC
notes: Same as m7 with the Fc-engineered IgG1 constant region (S239D, I332E); also called Fc-engineered mAB
As for B3, the Kd in the assay with CD33 [6] and with CD33 [7] was 2 nM each time.

The values above are taken from US20180311348A1 (LUDWIG MAXIMILIANS UNIVERSIT T M NCHEN, published 2018).
